Test results from US20250270304A1 (PHENOMIC AI, published 2025).

What was measured:
Experiment in all cases: ELISA, coated antigen, OD450; negative control antibody
[1] = molecular target: T1, Activin B (Homo sapiens (Human), UniProt P09529 293-407)
T1 construct: also called Mature Activin B; mature Activin B
T1 sequence: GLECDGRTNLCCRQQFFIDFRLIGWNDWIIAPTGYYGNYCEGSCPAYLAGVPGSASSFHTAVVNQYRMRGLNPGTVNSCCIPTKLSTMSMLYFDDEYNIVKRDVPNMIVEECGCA
Protocol: (§1) Antibodies were re-expressed in 40 mL cultures of Expi293 cells and purified using protein G magnetic sepharose beads (Cytiva, Marlborough, MA) to provide larger quantities for secondary screening. Secondary screening included dose responses in both functional assays described above (SMAD nuclear localization and fibroblast activations assays) as well as in binding assays to the same antigens listed in Table 3. Plates were coated with 25 μL of 3 μg/mL antigen in 384-well Maxisorp plates overnight at 4° C. with agitation. The next day, the samples in the plates were blocked with 70 μL blocking buffer (PBS+1% BSA+0.1% Tween-20) for 2 hours at room temperature. Plates were then washed three times with 100 μL of wash buffer (PBS+0.1% Tween-20). Primary antibodies in Expi293 expression medium were diluted 1:3 in blocking buffer, 25 μL added per well, and the plates were incubated for an hour at room temperature with agitation. Plates were then washed three times and 25 μL of secondary antibody (goat anti-Human IgG, HRP conjugated; Jackson Immunoresearch) diluted 1:5000 in blocking buffer was added for 30 minutes at room temperature. The wells in the plates were washed six times with wash buffer and TMB substrate was added followed by 1 M H3PO4.

[2] = molecular target: T2, Inhibin A (Homo sapiens (Human), UniProt P05111 233-366; P08476 311-426)
T2 sequence 1: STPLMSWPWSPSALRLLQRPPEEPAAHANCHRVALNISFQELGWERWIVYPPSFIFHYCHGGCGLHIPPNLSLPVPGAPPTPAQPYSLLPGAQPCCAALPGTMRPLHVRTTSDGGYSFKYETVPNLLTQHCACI
T2 sequence 2: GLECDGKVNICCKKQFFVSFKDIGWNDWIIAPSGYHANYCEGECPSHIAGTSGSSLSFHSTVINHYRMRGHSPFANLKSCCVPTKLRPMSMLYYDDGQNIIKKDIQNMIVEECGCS
Protocol: as §1

[3] = molecular target: T3, Latent Activin A (human, UniProt P08476 21-426, limits assumed)
T3 construct: also called INHBA latent
T3 sequence: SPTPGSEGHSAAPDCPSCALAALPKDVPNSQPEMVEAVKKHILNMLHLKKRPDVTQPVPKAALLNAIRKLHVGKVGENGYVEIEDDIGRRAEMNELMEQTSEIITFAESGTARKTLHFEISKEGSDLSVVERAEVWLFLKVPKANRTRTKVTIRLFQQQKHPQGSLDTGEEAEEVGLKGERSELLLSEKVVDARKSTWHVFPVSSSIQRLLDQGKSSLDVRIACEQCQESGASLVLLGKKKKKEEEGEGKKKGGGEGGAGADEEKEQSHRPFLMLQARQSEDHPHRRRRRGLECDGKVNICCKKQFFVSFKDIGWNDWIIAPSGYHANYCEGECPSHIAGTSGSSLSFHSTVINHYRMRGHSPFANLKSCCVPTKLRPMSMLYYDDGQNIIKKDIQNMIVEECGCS
Protocol: as §1

[4] = molecular target: T4, Mature Activin A (human, UniProt P08476 311-426)
T4 construct: also called active Activin A; INHBA mature
T4 sequence: T2 sequence 2
Protocol: as §1

Measured: binding result

B1: Control 3 (antibody, human IgG1, kappa, V domains shown)
VH: QVTLRESGPALVKPTQTLTLTCTFSGFSLSTSGMSVGWIRQPPGKALEWLADIWWDDKKDYNPSLKSRLTISKDTSKNQVVLKVTNMDPADTATYYCARSMITNWYFDVWGAGTTVTVSS
VL: DIQMTQSPSTLSASVGDRVTITCKCQLSVGYMHWYQQKPGKAPKLLIYDTSKLASGVPSRFSGSGSGTEFTLTISSLQPDDFATYYCFQGSGYPFTFGGGTKLEIKR
notes: Negative control antibody; also called palivizumab
no binding: all assays above
